Assay results from IntAct's records for PubMed 19587294.

B1: Tetraspanin-12 (Homo sapiens), O95859 (parent)
chain: MAREDSVKCLRCLLYALNLLFWLMSISVLAVSAWMRDYLNNVLTLTAETRVEEAVILTYFPVVHPVMIAVCCFLIIVGMLGYCGTVKRNLLLLAWYFGSLLVIFCVELACGVWTYEQELMVPVQWSDMVTLKARMTNYGLPRYRWLTHAWNFFQREFKCCGVVYFTDWLEMTEMDWPPDSCCVREFPGCSKQAHQEDLSDLYQEGCGKKMYSFLRGTKQLQVLRFLGISIGVTQILAMILTITLLWALYYDRREPGTDQMMSLKNDNSQHLSCPSVELLKPSLSRIFEHTSMANSFNTHFEMEEL

Variants of: B1
Details: with ada10_human ADAM10, O14672
Sequence of ada10_human ADAM10, O14672 (O14672 whole entry): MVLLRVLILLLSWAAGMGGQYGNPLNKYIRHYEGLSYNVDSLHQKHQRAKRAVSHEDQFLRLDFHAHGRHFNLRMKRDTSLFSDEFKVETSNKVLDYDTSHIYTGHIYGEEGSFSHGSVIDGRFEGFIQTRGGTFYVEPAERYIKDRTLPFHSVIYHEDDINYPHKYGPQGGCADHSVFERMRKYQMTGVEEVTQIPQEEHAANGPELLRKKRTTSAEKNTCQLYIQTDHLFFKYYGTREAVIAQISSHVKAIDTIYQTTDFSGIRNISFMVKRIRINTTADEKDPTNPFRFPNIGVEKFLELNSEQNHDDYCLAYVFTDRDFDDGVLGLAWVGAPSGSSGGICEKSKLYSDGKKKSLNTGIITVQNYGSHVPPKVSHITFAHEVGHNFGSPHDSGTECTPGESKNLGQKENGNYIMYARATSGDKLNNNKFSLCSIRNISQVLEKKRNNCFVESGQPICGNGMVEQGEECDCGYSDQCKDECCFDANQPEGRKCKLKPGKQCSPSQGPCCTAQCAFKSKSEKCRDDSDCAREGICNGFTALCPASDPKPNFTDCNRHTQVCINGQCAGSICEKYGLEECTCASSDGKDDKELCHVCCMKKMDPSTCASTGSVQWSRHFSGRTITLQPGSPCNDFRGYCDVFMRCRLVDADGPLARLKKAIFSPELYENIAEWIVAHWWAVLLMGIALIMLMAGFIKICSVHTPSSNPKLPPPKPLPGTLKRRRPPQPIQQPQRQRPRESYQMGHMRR

effect of a mutation on the interaction | Variant
decreasing interaction strength | MAREDSVKCLRCLLYALNLLFWLMSISVLAVSAWMRDYLNNVLTLTAETRVEEAVILTYFPVVHPVMIAVCCFLIIVGMLGYCGTVKENLLLLAWYFGSLLVIFCVELACGVWTYEQELMVPVQWSDMVTLKARMTNYGLPRYRWLTHAWNFFQREFKCCGVVYFTDWLEMTEMDWPPDSCCVREFPGCSKQAHQEDLSDLYQEGCGKKMYSFLRGTKQLQVLRFLGISIGVTQILAMILTITLLWALYYDRREPGTDQMMSLKNDNSQHLSCPSVELLKPSLSRIFEHTSMANSFNTHFEMEEL [R88E]
disrupting interaction strength | MAREDSVKSLRSLLYALNLLFWLMSISVLAVSAWMRDYLNNVLTLTAETRVEEAVILTYFPVVHPVMIAVCCFLIIVGMLGYSGTVKRNLLLLAWYFGSLLVIFCVELACGVWTYEQELMVPVQWSDMVTLKARMTNYGLPRYRWLTHAWNFFQREFKCCGVVYFTDWLEMTEMDWPPDSCCVREFPGCSKQAHQEDLSDLYQEGCGKKMYSFLRGTKQLQVLRFLGISIGVTQILAMILTITLLWALYYDRREPGTDQMMSLKNDNSQHLSCPSVELLKPSLSRIFEHTSMANSFNTHFEMEEL [C9S;C12S;C83S]
